In publication PMC10872586 (Cell reports, 2023):
Numbering of substitutions follows the chain as printed.

B1: CR9114 Fab (positive control) (Fab, V domains shown)
VH: QVQLVQSGAEVKKPGSSVKVSCKSSGGTSNNYAISWVRQAPGQGLDWMGGISPIFGSTAYAQKFQGRVTISADIFSNTAYMELNSLTSEDTAVYFCARHGNYYYYSGMDVWGQGTTVTVSS
VL: QSALTQPPAVSGTPGQRVTISCSGSDSNIGRRSVNWYQQFPGTAPKLLIYSNDQRPSVVPDRFSGSKSGTSASLAISGLQSEDEAEYYCAAWDDSLKGAVFGGGTQLTVL
notes: source: Expi293F, co-transfected, purified (CaptureSelect CH1-XL)
B2: CR9114 gHC Fab VL A96W (Fab, V domains shown)
VH: QVQLVQSGAEVKKPGSSVKVSCKASGGTFSSYAISWVRQAPGQGLEWMGGIIPIFGTANYAQKFQGRVTITADKSTSTAYMELSSLRSEDTAVYYCARHGNYYYYYGMDVWGQGTTVTVSS
VL: B1 VL with Q1S, S2Y, A3V, A99W
notes: Kabat numbering; source: Expi293F, co-transfected, purified (CaptureSelect CH1-XL)
B3: CR9114 gHC Fab VL A96Y (Fab, V domains shown)
VH: B2 VH
VL: B1 VL with Q1S, S2Y, A3V, A99Y
notes: as for B2
B4: CR9114 gHC Fab VL W91R (Fab, V domains shown)
VH: B2 VH
VL: B1 VL with Q1S, S2Y, A3V, W92R
notes: as for B2
B5: CR9114 gHC Fab VL W91T (Fab, V domains shown)
VH: B2 VH
VL: B1 VL with Q1S, S2Y, A3V, W92T
notes: as for B2
B6: CR9114 with germline heavy chain, Fab (Fab, V domains shown)
VH: B2 VH
VL: B1 VL with Q1S, S2Y, A3V
notes: also called CR9114 gHC; WT; source: Expi293F, co-transfected, purified (CaptureSelect CH1-XL)
B7: CR9114 gHC Fab VL A96F (Fab, V domains shown)
VH: B2 VH
VL: B1 VL with Q1S, S2Y, A3V, A99F
notes: as for B2
B8: CR9114 gHC Fab VL W91A (Fab, V domains shown)
VH: B2 VH
VL: B1 VL with Q1S, S2Y, A3V, W92A
notes: as for B2

Experiments:
[1] = target: mini-HA #4900 protein (Designed influenza A H1 HA stem #4900 …, stabilised, biotin at the BirA biotinylation site, conjugated to streptavidin-PE (for the yeast display assays only)); test: BLI; conditions: both partners purified
[2] = target: HA protein from H1N1 A/Solomon Islands/3/2006 (Influenza A virus (A/Solomon …, UniProt A7Y8I1, strain)); test: BLI; conditions: both partners purified

Binder	binding result [2]	further results
B1		Kd [1]: 0.69 nM
B2	no binding (tested: 300 nM)	
B3	no binding (tested: 300 nM)	
B4	no binding (tested: 300 nM)	
B5	no binding (tested: 300 nM)	
B6		Kd [2]: 2600 nM
B7	no binding (tested: 300 nM)	
B8	no binding (tested: 300 nM)	
